# T1: PUF4 RNA-binding domain (Saccharomyces cerevisiae, UniProt P25339 537-888)
# T1 sequence: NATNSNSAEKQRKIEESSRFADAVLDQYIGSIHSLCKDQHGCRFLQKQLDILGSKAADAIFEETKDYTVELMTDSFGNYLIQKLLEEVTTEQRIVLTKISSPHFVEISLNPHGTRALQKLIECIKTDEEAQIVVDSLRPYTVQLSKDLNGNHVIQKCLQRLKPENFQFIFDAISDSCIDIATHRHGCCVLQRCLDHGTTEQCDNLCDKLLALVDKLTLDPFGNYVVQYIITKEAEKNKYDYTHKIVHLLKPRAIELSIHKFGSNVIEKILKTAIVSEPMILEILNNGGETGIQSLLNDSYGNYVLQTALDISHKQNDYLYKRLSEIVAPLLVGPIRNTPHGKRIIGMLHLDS
# Target: T1, PUF4 RNA-binding domain
# Experiment: Mg; RNA-MaP; 20 mM Na-HEPES pH 7.4, 30 mM KOAc, 0.75 mM MgCl2, 0.1% Tween-20, 5% glycerol, 0.1 mg/mL BSA, 2 mM DTT; 25 C; 0.0125-409.6 nM protein
# Details: tags: N-His6-TEV cleaved; C-SNAP kept, Cy3B-labelled; label: tethered on chip by stalled RNA polymerase
row,Binder,Kd [nM]
1,UCUCUUAGUAUAAUUAUCUCUU (ssRNA) [Ib_S1_P5E.1_K5.1_C5.1_H5.1_[T1A]_A5.1_[T6A]_F5.1_T5.1],1030
2,UCUCUUAGUAUUUUUAUCUCUU (ssRNA) [Ib_S1_P5E.1_K5.1_C5.1_H5.1_[T1A]_A5.1_[A7T]_F5.1_T5.1],1470
3,Id_ii_S4_P3E.3_K3.2_C3.2_[C-2G]_H3.2_A3.1_F3.1_T3.2_[T9A]_[A10G] (ssRNA) RNA: UUUGACAACUGAUCGUUCUUUCUGUUAUAUAUAAGUUCUUUCUCGAUCAGUUGUCUUU,304
4,Id_ii_S4_P3E.3_K3.2_C3.2_[C-2A]_[T-1C]_H3.2_A3.1_F3.1_T3.2_[T9C]_[A10C] (ssRNA) RNA: UUUGACAACUGAUCGUUCUUUCUACUAUAUAUACCUUCUUUCUCGAUCAGUUGUCUUU,184
5,Id_ii_S4_P3E.3_K3.2_C3.2_[C-2A]_[T-1A]_H3.2_A3.1_F3.1_T3.2_[T9C]_[A10T] (ssRNA) RNA: UUUGACAACUGAUCGUUCUUUCUAAUAUAUAUACUUUCUUUCUCGAUCAGUUGUCUUU,167
6,Id_ii_S4_P3E.3_K3.2_C3.2_[C-2A]_H3.2_A3.1_F3.1_T3.2_[T9A] (ssRNA) RNA: UUUGACAACUGAUCGUUCUUUCUAUUAUAUAUAAAUUCUUUCUCGAUCAGUUGUCUUU,831
7,Id_ii_S4_P3E.3_K3.2_C3.2_[C-2T]_[T-1C]_H3.2_A3.1_F3.1_T3.2_[T9C]_[A10G] (ssRNA) RNA: UUUGACAACUGAUCGUUCUUUCUUCUAUAUAUACGUUCUUUCUCGAUCAGUUGUCUUU,467
8,Id_ii_S4_P3E.3_K3.2_C3.2_[C-2T]_[T-1C]_H3.2_A3.1_F3.1_T3.2_[T9A] (ssRNA) RNA: UUUGACAACUGAUCGUUCUUUCUUCUAUAUAUAAAUUCUUUCUCGAUCAGUUGUCUUU,472
9,Id_ii_S4_P3E.3_K3.2_C3.2_[T-1C]_H3.2_A3.1_F3.1_T3.2_[T9C]_[A10C] (ssRNA) RNA: UUUGACAACUGAUCGUUCUUUCUCCUAUAUAUACCUUCUUUCUCGAUCAGUUGUCUUU,244
10,Id_ii_S4_P3E.3_K3.2_C3.2_[C-2T]_[T-1C]_H3.2_A3.1_F3.1_T3.2_[A10C] (ssRNA) RNA: UUUGACAACUGAUCGUUCUUUCUUCUAUAUAUAUCUUCUUUCUCGAUCAGUUGUCUUU,120
11,Id_ii_S4_P3E.3_K3.2_C3.2_[C-2A]_[T-1C]_H3.2_A3.1_F3.1_T3.2_[T9C] (ssRNA) RNA: UUUGACAACUGAUCGUUCUUUCUACUAUAUAUACAUUCUUUCUCGAUCAGUUGUCUUU,261
12,Id_ii_S4_P3E.3_K3.2_C3.2_[C-2A]_[T-1A]_H3.2_A3.1_F3.1_T3.2_[T9A]_[A10T] (ssRNA) RNA: UUUGACAACUGAUCGUUCUUUCUAAUAUAUAUAAUUUCUUUCUCGAUCAGUUGUCUUU,584
13,Id_ii_S4_P3E.3_K3.2_C3.2_[C-2A]_[T-1A]_H3.2_A3.1_F3.1_T3.2_[T9A]_[A10C] (ssRNA) RNA: UUUGACAACUGAUCGUUCUUUCUAAUAUAUAUAACUUCUUUCUCGAUCAGUUGUCUUU,445
14,Id_ii_S4_P3E.3_K3.2_C3.2_[C-2T]_H3.2_A3.1_F3.1_T3.2_[T9C] (ssRNA) RNA: UUUGACAACUGAUCGUUCUUUCUUUUAUAUAUACAUUCUUUCUCGAUCAGUUGUCUUU,220
15,Id_ii_S4_P3E.3_K3.2_C3.2_[C-2A]_H3.2_A3.1_F3.1_T3.2_[A10G] (ssRNA) RNA: UUUGACAACUGAUCGUUCUUUCUAUUAUAUAUAUGUUCUUUCUCGAUCAGUUGUCUUU,978
16,Id_ii_S4_P3E.3_K3.2_C3.2_[C-2T]_H3.2_A3.1_F3.1_T3.2 (ssRNA) RNA: UUUGACAACUGAUCGUUCUUUCUUUUAUAUAUAUAUUCUUUCUCGAUCAGUUGUCUUU,117
17,Id_ii_S4_P3E.3_K3.2_C3.2_[C-2A]_[T-1A]_H3.2_A3.1_F3.1_T3.2_[T9C]_[A10G] (ssRNA) RNA: UUUGACAACUGAUCGUUCUUUCUAAUAUAUAUACGUUCUUUCUCGAUCAGUUGUCUUU,745
18,Id_ii_S4_P3E.3_K3.2_C3.2_[C-2A]_[T-1C]_H3.2_A3.1_F3.1_T3.2_[T9C]_[A10G] (ssRNA) RNA: UUUGACAACUGAUCGUUCUUUCUACUAUAUAUACGUUCUUUCUCGAUCAGUUGUCUUU,2050
19,Id_ii_S4_P3E.3_K3.2_C3.2_[C-2A]_[T-1A]_H3.2_A3.1_F3.1_T3.2_[T9A] (ssRNA) RNA: UUUGACAACUGAUCGUUCUUUCUAAUAUAUAUAAAUUCUUUCUCGAUCAGUUGUCUUU,723
20,Id_ii_S4_P3E.3_K3.2_C3.2_[C-2T]_H3.2_A3.1_F3.1_T3.2_[A10T] (ssRNA) RNA: UUUGACAACUGAUCGUUCUUUCUUUUAUAUAUAUUUUCUUUCUCGAUCAGUUGUCUUU,70
21,Id_ii_S4_P3E.3_K3.2_C3.2_[C-2A]_H3.2_A3.1_F3.1_T3.2_[T9C]_[A10T] (ssRNA) RNA: UUUGACAACUGAUCGUUCUUUCUAUUAUAUAUACUUUCUUUCUCGAUCAGUUGUCUUU,214
22,Id_ii_S4_P3E.3_K3.2_C3.2_[C-2A]_H3.2_A3.1_F3.1_T3.2 (ssRNA) RNA: UUUGACAACUGAUCGUUCUUUCUAUUAUAUAUAUAUUCUUUCUCGAUCAGUUGUCUUU,596
23,Id_ii_S4_P3E.3_K3.2_C3.2_[C-2T]_[T-1A]_H3.2_A3.1_F3.1_T3.2_[T9C] (ssRNA) RNA: UUUGACAACUGAUCGUUCUUUCUUAUAUAUAUACAUUCUUUCUCGAUCAGUUGUCUUU,94.6

row,Binder,Kd [nM]
1,Id_ii_S4_P3E.3_K3.2_C3.2_[C-2T]_[T-1A]_H3.2_A3.1_F3.1_T3.2_[A10C] (ssRNA) RNA: UUUGACAACUGAUCGUUCUUUCUUAUAUAUAUAUCUUCUUUCUCGAUCAGUUGUCUUU,108
2,Id_ii_S4_P3E.3_K3.2_C3.2_[C-2T]_[T-1G]_H3.2_A3.1_F3.1_T3.2_[T9A]_[A10T] (ssRNA) RNA: UUUGACAACUGAUCGUUCUUUCUUGUAUAUAUAAUUUCUUUCUCGAUCAGUUGUCUUU,1.81
3,Id_ii_S4_P3E.3_K3.2_C3.2_[T-1C]_H3.2_A3.1_F3.1_T3.2_[T9C]_[A10T] (ssRNA) RNA: UUUGACAACUGAUCGUUCUUUCUCCUAUAUAUACUUUCUUUCUCGAUCAGUUGUCUUU,92.9
4,Id_ii_S4_P3E.3_K3.2_C3.2_[C-2T]_[T-1A]_H3.2_A3.1_F3.1_T3.2_[T9A]_[A10C] (ssRNA) RNA: UUUGACAACUGAUCGUUCUUUCUUAUAUAUAUAACUUCUUUCUCGAUCAGUUGUCUUU,326
5,Id_ii_S4_P3E.3_K3.2_C3.2_[C-2T]_[T-1C]_H3.2_A3.1_F3.1_T3.2_[A10T] (ssRNA) RNA: UUUGACAACUGAUCGUUCUUUCUUCUAUAUAUAUUUUCUUUCUCGAUCAGUUGUCUUU,38
6,Id_ii_S4_P3E.3_K3.2_C3.2_[T-1G]_H3.2_A3.1_F3.1_T3.2_[T9G]_[A10C] (ssRNA) RNA: UUUGACAACUGAUCGUUCUUUCUCGUAUAUAUAGCUUCUUUCUCGAUCAGUUGUCUUU,194
7,Id_ii_S4_P3E.3_K3.2_C3.2_[C-2G]_H3.2_A3.1_F3.1_T3.2_[A10T] (ssRNA) RNA: UUUGACAACUGAUCGUUCUUUCUGUUAUAUAUAUUUUCUUUCUCGAUCAGUUGUCUUU,16.8
8,Id_ii_S4_P3E.3_K3.2_C3.2_[C-2T]_[T-1C]_H3.2_A3.1_F3.1_T3.2_[T9C] (ssRNA) RNA: UUUGACAACUGAUCGUUCUUUCUUCUAUAUAUACAUUCUUUCUCGAUCAGUUGUCUUU,252
9,Id_ii_S4_P3E.3_K3.2_C3.2_[T-1G]_H3.2_A3.1_F3.1_T3.2_[T9C]_[A10C] (ssRNA) RNA: UUUGACAACUGAUCGUUCUUUCUCGUAUAUAUACCUUCUUUCUCGAUCAGUUGUCUUU,978
10,Id_ii_S4_P3E.3_K3.2_C3.2_[C-2A]_H3.2_A3.1_F3.1_T3.2_[A10C] (ssRNA) RNA: UUUGACAACUGAUCGUUCUUUCUAUUAUAUAUAUCUUCUUUCUCGAUCAGUUGUCUUU,134
11,Id_ii_S4_P3E.3_K3.2_C3.2_[C-2T]_[T-1G]_H3.2_A3.1_F3.1_T3.2_[T9G]_[A10C] (ssRNA) RNA: UUUGACAACUGAUCGUUCUUUCUUGUAUAUAUAGCUUCUUUCUCGAUCAGUUGUCUUU,2.89
12,Id_ii_S4_P3E.3_K3.2_C3.2_[C-2A]_[T-1A]_H3.2_A3.1_F3.1_T3.2_[A10C] (ssRNA) RNA: UUUGACAACUGAUCGUUCUUUCUAAUAUAUAUAUCUUCUUUCUCGAUCAGUUGUCUUU,296
13,Id_ii_S4_P3E.3_K3.2_C3.2_[C-2T]_[T-1C]_H3.2_A3.1_F3.1_T3.2_[T9A]_[A10T] (ssRNA) RNA: UUUGACAACUGAUCGUUCUUUCUUCUAUAUAUAAUUUCUUUCUCGAUCAGUUGUCUUU,151
14,Id_ii_S4_P3E.3_K3.2_C3.2_[T-1G]_H3.2_A3.1_F3.1_T3.2_[T9A] (ssRNA) RNA: UUUGACAACUGAUCGUUCUUUCUCGUAUAUAUAAAUUCUUUCUCGAUCAGUUGUCUUU,404
15,Id_ii_S4_P3E.3_K3.2_C3.2_[C-2G]_H3.2_A3.1_F3.1_T3.2 (ssRNA) RNA: UUUGACAACUGAUCGUUCUUUCUGUUAUAUAUAUAUUCUUUCUCGAUCAGUUGUCUUU,43.8
16,Id_ii_S4_P3E.3_K3.2_C3.2_[T-1C]_H3.2_A3.1_F3.1_T3.2_[T9G]_[A10T] (ssRNA) RNA: UUUGACAACUGAUCGUUCUUUCUCCUAUAUAUAGUUUCUUUCUCGAUCAGUUGUCUUU,392
17,Id_ii_S4_P3E.3_K3.2_C3.2_[C-2T]_H3.2_A3.1_F3.1_T3.2_[T9G]_[A10T] (ssRNA) RNA: UUUGACAACUGAUCGUUCUUUCUUUUAUAUAUAGUUUCUUUCUCGAUCAGUUGUCUUU,575
18,Id_ii_S4_P3E.3_K3.2_C3.2_[C-2A]_[T-1G]_H3.2_A3.1_F3.1_T3.2_[T9A]_[A10G] (ssRNA) RNA: UUUGACAACUGAUCGUUCUUUCUAGUAUAUAUAAGUUCUUUCUCGAUCAGUUGUCUUU,1140
19,Id_ii_S4_P3E.3_K3.2_C3.2_[C-2A]_[T-1C]_H3.2_A3.1_F3.1_T3.2_[T9C]_[A10T] (ssRNA) RNA: UUUGACAACUGAUCGUUCUUUCUACUAUAUAUACUUUCUUUCUCGAUCAGUUGUCUUU,132
20,Id_ii_S4_P3E.3_K3.2_C3.2_[C-2A]_H3.2_A3.1_F3.1_T3.2_[A10T] (ssRNA) RNA: UUUGACAACUGAUCGUUCUUUCUAUUAUAUAUAUUUUCUUUCUCGAUCAGUUGUCUUU,203
21,UCUCUUCGUAUUGUUAUCUCUU (ssRNA) [Ib_S1_P5E.1_K5.1_C5.1_H5.1_[T1C]_A5.1_[A7G]_F5.1_T5.1],> 2300
22,UCUCUUAGUAUUCUUAUCUCUU (ssRNA) [Ib_S1_P5E.1_K5.1_C5.1_H5.1_[T1A]_A5.1_[A7C]_F5.1_T5.1],1460
